Data from patent publication US20240383958A1, “APELIN RECEPTOR AGONISTS AND USES THEREOF” (VISTERRA, INC., priority 2023, published 2024).
Residue numbers refer to the chain shown, from its start. Names may count otherwise.

B1: APL-F (Fc fusion)
chain: DKTHTSPPSPAPEAAGGPSVFLFPPKPKDTLMISRTPEVTCVVVDVSHEDPEVKFNWYVDGVEVHNAKTKPREEQYNSTYRVVSVLTVLHQDWLNGKEYKCKVSNKALPAPIEKTISKAKGQPREPQVYTLPPSREEMTKNQVNLTCLVKGFYPSDIAVEWESNGQPENNYKTTPPVLDSDGSFFLNSTLTVDKSRWQQGNVFSCSVMHEALHNHYTQKSLSLSPGKGGGGSGGGGSGGGGSQRPRLSHKGPAPY
B2: APL-G (Fc fusion)
chain: B1 chain with A253M, P254A, Y255F
B3: APL-K (Fc fusion)
chain: B1 chain with S248Q, G251N, A253M, P254A, Y255F
B4: APL-L (Fc fusion)
chain: B1 chain with S248Q, G251N, A253M, P254A, Y255W
B5: APL-J (Fc fusion)
chain: B1 chain with P254A
B6: APL-H (Fc fusion)
chain: B1 chain with A253M, P254H, Y255W
B7: APL-I (Fc fusion)
chain: B1 chain with P254A, Y255W
B8: APL-M (Fc fusion)
chain: B1 chain with K250W, A253M, P254A, Y255W
B9: ELA-A (Fc fusion)
chain: DKTHTSPPSPAPEAAGGPSVFLFPPKPKDTLMISRTPEVTCVVVDVSHEDPEVKFNWYVDGVEVHNAKTKPREEQYNSTYRVVSVLTVLHQDWLNGKEYKCKVSNKALPAPIEKTISKAKGQPREPQVYTLPPSREEMTKNQVNLTCLVKGFYPSDIAVEWESNGQPENNYKTTPPVLDSDGSFFLNSTLTVDKSRWQQGNVFSCSVMHEALHNHYTQKSLSLSPGKGGGGSGGGGSGGGGSKLRKHNCLQRRCMPLHSRVPFP
B10: ELA-H (Fc fusion)
chain: B9 chain with L257Y
B11: ELA-C (Fc fusion)
chain: B9 chain with P256I
B12: ELA-D (Fc fusion)
chain: B9 chain with S259Q
B13: ELA-L (Fc fusion)
chain: B9 chain with L250A, Q251T
B14: ELA-F (Fc fusion)
chain: B9 chain with Q251K
B15: ELA-E (Fc fusion)
chain: B9 chain with S259R
B16: ELA-G (Fc fusion)
chain: B9 chain with R260Y
B17: ELA-B (Fc fusion)
chain: B9 chain with R245N
B18: ELA-K (Fc fusion)
chain: B9 chain with Q251I
B19: ELA-D: Fc-linker fusion of elabela analogue KLRKHNCLQRRCMPLHQRVPFP (S17Q) (protein)
chain: MRAWIFFLLCLAGRALADKTHTSPPSPAPEAAGGPSVFLFPPKPKDTLMISRTPEVTCVVVDVSHEDPEVKFNWYVDGVEVHNAKTKPREEQYNSTYRVVSVLTVLHQDWLNGKEYKCKVSNKALPAPIEKTISKAKGQPREPQVYTLPPSREEMTKNQVNLTCLVKGFYPSDIAVEWESNGQPENNYKTTPPVLDSDGSFFLNSTLTVDKSRWQQGNVFSCSVMHEALHNHYTQKSLSLSPGKGGGGSGGGGSGGGGSKLRKHNCLQRRCMPLHQRVPFP
B20: ELA-J: Fc-linker fusion of elabela analogue KLRKHNCLQERCMPLHSRVPFP (R10E) (protein)
chain: B19 chain with R269E, Q276S
B21: ELA-E: Fc-linker fusion of elabela analogue KLRKHNCLQRRCMPLHRRVPFP (S17R) (protein)
chain: B19 chain with Q276R

Columns and labels:
[1] = biological target: T1, apelin receptor (Homo sapiens, UniProt P35414); conditions: human heart; cited from earlier work
T1 construct: host or cells: human heart tissue
T1 sequence (P35414 1-380): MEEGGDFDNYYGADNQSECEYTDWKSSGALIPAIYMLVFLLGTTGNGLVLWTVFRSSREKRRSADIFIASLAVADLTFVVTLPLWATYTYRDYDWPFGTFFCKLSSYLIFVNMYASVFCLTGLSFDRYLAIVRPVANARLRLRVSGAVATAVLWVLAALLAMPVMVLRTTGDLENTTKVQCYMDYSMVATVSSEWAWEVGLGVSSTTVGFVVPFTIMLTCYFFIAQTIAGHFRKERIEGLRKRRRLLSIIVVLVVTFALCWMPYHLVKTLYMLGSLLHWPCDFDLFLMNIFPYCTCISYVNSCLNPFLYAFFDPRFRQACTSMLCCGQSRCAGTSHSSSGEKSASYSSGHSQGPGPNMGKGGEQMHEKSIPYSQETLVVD

[2] = biological target: T2, APJ-eGFP fusion protein on CHO-M1 cells (UniProt P35414 1-380); test: cell-based or functional assay
T2 sequence (looked up): T1 sequence (P35414 1-380)

[3] = biological target: T3, apelin receptor (AGTRL1) on CHO-K1 cells (UniProt P35414 1-380, limits assumed); test: cell-based or functional assay
T3 sequence (looked up): T1 sequence (P35414 1-380)

[4] = biological target: T4, apelin receptor (AGTRL1) (Homo sapiens, UniProt P35414); test: PathHunter beta-arrestin signaling assay; assay type: cell-based; conditions: PathHunter CHO-K1 AGTRL1 β-arrestin cells
T4 construct: host or cells: CHO-K1
T4 sequence (P35414 1-380): T1 sequence (P35414 1-380)
Description: In this example, commercially available HitHunter® cAMP assay was used to determine the effect of apelin receptor agonists on Gai signaling, measured cAMP depletion. Next, commercially available PathHunter® beta-arrestin assay was used to determine the effect of apelin receptor agonists on beta-arrestin signaling. Additionally, the effect of apelin receptor agonists on ERK signaling was determined.
In a 384-well plate (Corning #3897), PathHunter® CHO-K1 AGTRL1 β-arrestin cells (Eurofins DiscoverX #93-0250C2) were seeded at 5×10^3 cells/well in 20 μL AssayComplete Cell Plating 2 Reagent (Eurofins DiscoverX #93-0563R2A) and were incubated overnight at 37° C. with 5% CO2. On the following day, the plate was treated with 5 μL/well of compounds serially diluted in 1×PBS+0.1% BSA buffer and was incubated for 1.5 hr at 37° C. with 5% CO2. Then, 12.5 μL/well of detection solution was added, prepared as instructed in the PathHunter® Detection Kit (Eurofins DiscoverX #93-0001), the plate was wrapped in foil, and was incubated at room temperature. Plates were read after 1-2 hr of incubation on a standard luminescence plate reader. In this assay, low levels of β-arrestin in cells were directly related to low luminescence signal. Using Four Parameter Logistic Regression for curve fitting, the raw data file was processed into S-shaped dose-response curves from which values, such as the EC50, Hill Slope, and Emax, were quantified.

[5] = Proteolysis during production detected using mass spectroscopy; assay type: physicochemical; conditions: proteolytic stability
Text: Proteolysis during production was detected using mass spectroscopy, which provides insights into the proteolytic stability of the apelin receptor agonists.

[6] = system: APJ-eGFP fusion protein; test: Internalization assay, CHO-M1 cells expressing APJ-eGFP, high-content imaging; assay type: cell-based; set-up: key: 0: No Internalization; >1000; 2: 100-1000; 3: 10-100; 4: <10; conditions: lowest concentration at which maximum internalization was observed; 0.914 nM to 2000 nM
Description: In this example, the internalization of exemplary apelin receptor agonist was assessed. CHO-M1 cells expressing an APJ-eGFP fusion protein were stained and plated in a 96-well plate. Apelin receptor agonists were serially diluted and added to the wells at concentrations ranging from 0.914 nM to 2000 nM. The cells were later imaged using an Operetta CLS™ high-content analysis system. APJ-eGFP signal was measured in the membrane and cytoplasmic region, and the ratio of membrane signal to total signal was calculated (E ratio). An internalization score was assigned based on the lowest concentration of the compound at which maximum internalization was observed. The internalization score for each apelin receptor agonist was plotted against the EC50 values for cAMP signaling and beta-arrestin signaling as shown in FIG. 2 and FIG. 3.

Row | Molecule | Internalization Score [2] | beta-Arrestin EC50 (nM) Exp. 1 [3] [nM] | beta-Arrestin EC50 (nM) Exp. 2 [3] [nM] | cAMP EC50 (nM) Exp. 1 [3] [nM] | cAMP EC50 (nM) Exp. 2 [3] [nM] | further results
1 | elabela-21 |  |  |  |  |  | affinity for the apelin receptor [1]: nanomolar affinity
2 | B1 | 1 |  |  |  |  | 
3 | B2 | 3 |  |  |  |  | 
4 | B3 | 0 |  |  |  |  | 
5 | B4 | 0 |  |  |  |  | 
6 | B5 | 1 |  |  |  |  | 
7 | B6 | 0 |  |  |  |  | 
8 | B7 | 1 |  |  |  |  | 
9 | B8 | 0 |  |  |  |  | 
10 | B9 | 3 | 90.1 | 42.6 | 0.85 | 1.4 | ERK EC50 [3]: 0.19 nM
11 | B10 | 2 | 21.9 | 97.5 | 10 | 5.8 | 
12 | B11 | 2 | 535 | 75.1 | 0.577 | 1 | ERK EC50 [3]: 1.13 nM
13 | B12 | 1 |  | 922 | 10.7 | 4.4 | 
14 | B13 | 2 | 7.54 | 6.9 | 0.632 | 2.8 | 
15 | B14 | 3 | 9.59 | 43.5 | 1.01 | 1 | 
16 | B15 | 0 |  | 352 | 4.42 | 2.4 | 
17 | B16 | 1 | 89.1 | 521 | 9.91 | 14.3 | 
18 | B17 | 3 | 1120 | 59.9 | 0.349 | 1.5 | ERK EC50 [3]: 0.92 nM
19 | B18 | 2 | 3.45 | 12.2 | 4.76 | 5.7 | 
20 | B19 |  |  |  |  |  | beta-Arrestin EC50 (nM) Exp. 1 [4]: Weak; Proteolysis During Production? [5]: No; Internalization Score [6]: 1 (>1000)
21 | B20 |  |  |  |  |  | beta-Arrestin EC50 (nM) Exp. 2 ([4]; Exp. 2): Weak; Proteolysis During Production? [5]: Yes
22 | B21 |  |  |  |  |  | beta-Arrestin EC50 (nM) Exp. 1 [4]: Weak; Proteolysis During Production? [5]: No; Internalization Score [6]: 0
